Measurements: paper PMC2912912 (BMC Structural Biology, 2010)
Values joined by “and” are separate entries in the source; they are usually repeats but may differ in a detail not shown here. Equal entries are not always repeated.

Molecular target: the molecule itself
Assay: SEC; analytical gel filtration, Tricorn Superdex 200 10/300, samples 5 mg/mL, 20 mM Tris-HCl pH 8.0, 200 mM NaCl, 1 mM DTT, 4°C; molecular weight against globular standards

Protein	stoichiometry N
IpgC^10-155 (invasion plasmid gene C, residues 10-155) (domain or fragment, source: E. coli BL21 (DE3), purified (Ni2+-NTA Sepharose, TEV digestion, Resource Q)) SISTAVIDAINSGATLKDINAIPDDMMDDIYSYAYDFYNKGRIEEAEVFFRFLCIYDFYNVDYIMGLAAIYQIKEQFQQAADLYAVAFALGKNDYTPVFHTGQCQLRLKAPLKAKECFELVIQHSNDEKLKIKAQSYLDAIQDIKE	2
IpgC^21-155 (invasion plasmid gene C, residues 21-155) (domain or fragment) SGATLKDINAIPDDMMDDIYSYAYDFYNKGRIEEAEVFFRFLCIYDFYNVDYIMGLAAIYQIKEQFQQAADLYAVAFALGKNDYTPVFHTGQCQLRLKAPLKAKECFELVIQHSNDEKLKIKAQSYLDAIQDIKE	4 and 2
full-length IpgC (invasion plasmid gene C) (natural protein) MSLNITENESISTAVIDAINSGATLKDINAIPDDMMDDIYSYAYDFYNKGRIEEAEVFFRFLCIYDFYNVDYIMGLAAIYQIKEQFQQAADLYAVAFALGKNDYTPVFHTGQCQLRLKAPLKAKECFELVIQHSNDEKLKIKAQSYLDAIQDIKE	2
